Laboratory results reported in US20220096608.

T1: α2-antiplasmin, P08697
T1 chain: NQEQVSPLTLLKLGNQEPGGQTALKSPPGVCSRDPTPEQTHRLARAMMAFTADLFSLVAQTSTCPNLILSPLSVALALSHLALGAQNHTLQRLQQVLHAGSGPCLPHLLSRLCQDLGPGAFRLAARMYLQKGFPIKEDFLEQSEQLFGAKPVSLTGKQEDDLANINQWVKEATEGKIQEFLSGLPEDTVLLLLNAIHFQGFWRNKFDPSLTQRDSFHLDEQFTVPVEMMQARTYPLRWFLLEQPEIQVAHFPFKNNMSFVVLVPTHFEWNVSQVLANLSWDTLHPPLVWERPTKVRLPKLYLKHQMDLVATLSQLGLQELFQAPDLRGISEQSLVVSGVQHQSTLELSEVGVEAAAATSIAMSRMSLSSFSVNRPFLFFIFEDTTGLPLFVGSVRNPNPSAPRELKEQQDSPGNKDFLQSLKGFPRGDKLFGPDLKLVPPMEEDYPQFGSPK


Biological target: T1, α2-antiplasmin, P08697

Row | Protein | In vitro Half-life (of inactivation by α2-antiplasmin) [min]
1 | Mono-PEGylated Micro-plasmin variant (40 kDa PEG) V82C Catalytic Domain (SEQ ID NO. 4) (protein) APSFDCGKPQVEPKKCPGRVVGGCVAHPHSWPWQVSLRTRFGMHFCGGTLISPEWVLTAAHCLEKSPRPSSYKVILGAHQECNLEPHVQEIEVSRLFLEPTRKDIALLKLSSPAVITDKVIPACLPSPNYVVADRTECFITGWGETQGTFGAGLLKEAQLPVIENKVCNRYEFLNGRVQSTELCAGHLAGGTDSCQGDSGGPLVCFEKDKYILQGVTSWGLGCARPNKPGVYVRVSRFVTWIEGVMRNN | >7
2 | Wild-type Micro-plasmin (SEQ ID NO. 2) (protein) APSFDCGKPQVEPKKCPGRVVGGCVAHPHSWPWQVSLRTRFGMHFCGGTLISPEWVLTAAHCLEKSPRPSSYKVILGAHQEVNLEPHVQEIEVSRLFLEPTRKDIALLKLSSPAVITDKVIPACLPSPNYVVADRTECFITGWGETQGTFGAGLLKEAQLPVIENKVCNRYEFLNGRVQSTELCAGHLAGGTDSCQGDSGGPLVCFEKDKYILQGVTSWGLGCARPNKPGVYVRVSRFVTWIEGVMRNN | >5
3 | Mono-PEGylated Micro-plasmin variant (40 kDa PEG) H87C Catalytic Domain (SEQ ID NO. 9) (protein) APSFDCGKPQVEPKKCPGRVVGGCVAHPHSWPWQVSLRTRFGMHFCGGTLISPEWVLTAAHCLEKSPRPSSYKVILGAHQEVNLEPCVQEIEVSRLFLEPTRKDIALLKLSSPAVITDKVIPACLPSPNYVVADRTECFITGWGETQGTFGAGLLKEAQLPVIENKVCNRYEFLNGRVQSTELCAGHLAGGTDSCQGDSGGPLVCFEKDKYILQGVTSWGLGCARPNKPGVYVRVSRFVTWIEGVMRNN | >7
4 | Mono-PEGylated Micro-plasmin variant (20 kDa PEG) V82C Catalytic Domain (SEQ ID NO. 4) (protein) APSFDCGKPQVEPKKCPGRVVGGCVAHPHSWPWQVSLRTRFGMHFCGGTLISPEWVLTAAHCLEKSPRPSSYKVILGAHQECNLEPHVQEIEVSRLFLEPTRKDIALLKLSSPAVITDKVIPACLPSPNYVVADRTECFITGWGETQGTFGAGLLKEAQLPVIENKVCNRYEFLNGRVQSTELCAGHLAGGTDSCQGDSGGPLVCFEKDKYILQGVTSWGLGCARPNKPGVYVRVSRFVTWIEGVMRNN | 6 to 7
5 | Mono-PEGylated Micro-plasmin variant (20 kDa PEG) H87C Catalytic Domain (SEQ ID NO. 9) (protein) APSFDCGKPQVEPKKCPGRVVGGCVAHPHSWPWQVSLRTRFGMHFCGGTLISPEWVLTAAHCLEKSPRPSSYKVILGAHQEVNLEPCVQEIEVSRLFLEPTRKDIALLKLSSPAVITDKVIPACLPSPNYVVADRTECFITGWGETQGTFGAGLLKEAQLPVIENKVCNRYEFLNGRVQSTELCAGHLAGGTDSCQGDSGGPLVCFEKDKYILQGVTSWGLGCARPNKPGVYVRVSRFVTWIEGVMRNN | 6 to 7
6 | Bi-PEGylated Micro-plasmin variant (20 kDa-20 kDa PEG) V82C-H87C Catalytic Domain (SEQ ID NO. 12) (protein) APSFDCGKPQVEPKKCPGRVVGGCVAHPHSWPWQVSLRTRFGMHFCGGTLISPEWVLTAAHCLEKSPRPSSYKVILGAHQECNLEPCVQEIEVSRLFLEPTRKDIALLKLSSPAVITDKVIPACLPSPNYVVADRTECFITGWGETQGTFGAGLLKEAQLPVIENKVCNRYEFLNGRVQSTELCAGHLAGGTDSCQGDSGGPLVCFEKDKYILQGVTSWGLGCARPNKPGVYVRVSRFVTWIEGVMRNN | >10
